One substance from patent EP0480381A1 can be followed below.

For experiment [1], the target named is rat endothelin receptor (rat). Kind of experiment: displacement of [125I-Tyr13]endothelin-1 by unlabelled peptide on COS-7 cells transfected with prETR-7. For orientation: In a radioligand displacement assay an active substance lowers the binding of a labelled ligand.
Experiment [2] deals with rat endothelin receptor (rat). The experiment in a line: cell-based or functional assay.

In experiment [1], “endothelin-2 (from UniProt P20800 49-69) (peptide)” returned a binding affinity of 2 nM. Also, the increase of calcium concentration in cytoplasm (fura-2), EC50 in experiment [2] was 0.02 nM.
